This experiment has as its target mumps hemagglutinin neuraminidase (HN) globular head domain, monomeric (Mumps virus genotype G (strain not …)).

B1: B11 (antibody, V domains shown)
VH: EVQLQQSGAEPVRPGTSVKFSCKASGYTLTDYWMHWVKQRPGQGLDWIGVIDPSDSYTTYNQKFKGKATLTVDKSSSTAYMQLSSLTSEDSAVYYCARGPTLYYFDYWGQGTTLTVSS
VL: DIVMTQPQKFMSTSVGDRVSVTCKASQNVGTNVVWCQQKPGQSPKALIYSASYLYSGVPDRFTGTGSGTDFTLTISNVQSEDLAEYFCQQYNNYPLTFGAGTKLELK
Consider B1, for which the binding result is listed as “binds”.

B2: G9 (antibody, V domains shown)
VH: EVQLQQSGPEQVRTGASVKISCKASGYFFTGYYLHWVRQSHGKSLEWIGYIRSYNGATKYNQKFEGKTTFTVDTSSSTAYMQINSLTSEDSAVYYCAKDEDSGYAMDYWGQGTSVTVSS
VL: DIVMTQSHKFMSTLVGDRVAITCKASQDVSSAVAWYQQKPGQSPKLLIYSASYRFTGVPDRFTGSGSGTDFTFTITTVQTEDLAIYFCQQHYSLPWTFGGGTKLEIK
As for B2, the binding result is listed as “binds”.

B3: C9 (antibody, V domains shown)
VH: EVKLLQSGGGLVQPGGSLKLSCAASGIDFSRYWMGWVRRAPGKGLEWIGEINPDSSTINYAPSLKDKFIISRDNAKNTLYLQMIKVRSEDTALYYCARYWADWFFDVWGTGTTVTVSS
VL: DIQMTQSSSYLSVSLGGRVTITCTASDHIDNWLAWYQQKPGNAPRLLLSGATSLDTGVPSRFSGSGSGKDFTLSITSLQTEDVATYYCQQYWSTPYTFGGGTKLEIK
On to B3, for which the binding result was “binds”.

B4: F11 (antibody, V domains shown)
VH: EVQLQQSGPELVKPGASVKISCKASGYTFTDYYMNWVKQSHGKSLEWVGDINPNNGVTRYNQNFKGKGTMTVDKSSRTAYMEFRSLTSEDSAVYYCGRLGYYGKYKDGMDYWGQGTSVTVSS
VL: DIQMTQSPASLSVSVGETVTITCRASDNIYSNLAWYQQRQGKSPQLLVYAATNLLDGVPSRFSGSGSGTHYSLKINSLQSEDFGTYYCQHFWGTPFTFGSGTKLEIK
Turning to B4, the binding result was “binds”.

B5: B12 (antibody, V domains shown)
VH: EVQLQQSGPELVKPGASVKIPCKASGYTFTEYNMDWVKQSHGKSLEWIGDINPNNGDTIYNQKFKGKATLTVDKASSTAYMELRSLTSEDTAVYYCARGTLYGSNYYFVMDYWGQGTSVTVSS
VL: DIQITQSPASLSASVGETVTITCGASENIYGALNWFQRKQGKSPQLLIYGATTLADGMSSRFSGNGSGRQYSLKISGLHPDDVATYYCQNVLSIPWTFGGGTKLEIK
As to B5, the binding result is “binds”.

B6: G6 (antibody, V domains shown)
VH: QIQLVQSGPELKKPGETVKISCKASGYTFTPYGLSWVKQAPGKVLKWMGWINTSSGVPTYADDFKGRFAFSLETSVSTAYLQINNLKNEDTATYFCARISVSFYYGLYFDYWGQGTTLTVSS
VL: DIQMTQSPSSMSVSLGDTVSITCHASQGIANNIGWLQQKPGKSFKGLLYHGSTLEDGVPSRFSGSGSGAAYSLTISSLESEDFADYYCIQYAQLPYTFGGGTKLEIK
For B6, the binding result is on record as “binds”.

B7: E7 (antibody, V domains shown)
VH: EVKLVESGGGLVQPGGSLRLSCATSGFTFTDYYMSWVRQTPGKALEWLGFIRNKPNGYTTEYNASVKGRFTISRDNSRSVLYLQMNVLRAEDSATYFCARVPHDYGFFDYWGQGTTLTVSS
VL: DVLMTQSPLSLPVSLGDQASISCRSSQSIEHINGHTYLEWYLQKPGQSPKVLIYKVSNRFSGVPDRFSGSGSGTDFTLRISRVEAEDLGVYYCFQASHLPYTFGGGTKLEIK
As to B7, the binding result is given as “binds”.

B8: E10 (antibody, V domains shown)
VH: EVQLQQSGAELVRPGSSVKLSCKASGYTFTWYWIDWMKQRPGQGLEWIGNIYPSDSEVQYNQKFKDRATLTLDKSSTTAYMQLSSLTSEDSAVYYCARRLYDYFALDFWGQGTSVTVSS
VL: DIVMTQAAFSNPVTLGTSASISCRSSKSLQHSNGITYLYWYLQKPGQSPQLLIYQMSKFASGVPDRFSSSGSGTDFTLRISRVEAEDVGVYYCAQNLELPWTFGGGTKLEIK
B8: the binding result is given as “binds”.

B9: F10 (antibody, V domains shown)
VH: EVQLQQSGAELVRPGSSVKLSCKASGYTFTWYWIDWLKQRPGQGLEWIGNIYPSDSAVQYNQNFKDRATLTLDTSSTTAYLHLSSLTSEDSAVYYCARRIYDYFALDFWGQGTSVTVSS
VL: DIVMTQAAFSHPVTLGTSASISCRSSKSLQHSNGITFLYWYLQKPGQSPQLLIYQMSKLASGIPDRFSSSGSGTDFTLRISRVEAEDVGVYYCAQNLELPWTFGGGTKLEIK
Regarding B9, the binding result is reported as “binds”.

B10: C7 (antibody, V domains shown)
VH: QITQKSEGSGILQPSQTLSLTCSFSGFSLNISGMGVGWIRQPSGKGLEWLAHIWWDDVKRYNPALKSRLTISKDTSSRQVFLKIASVDTADTATYYCVRIDNSYAMDYWGQGTSVTVSS
VL: DIVLTQSPASLAVSLGQRATISCRASKSVSTSGYSYVHWFQQKPGQPPKLLIYLASNLESGVPARFSGSGSGTDFTLNIHPVEEEDAATYYCQHSRELPWTFGGGTKLEIK
For B10, the binding result is on record as “binds”.

B11: D11 (antibody, V domains shown)
VH: EVQLQQSGAELVRPGTSVKLSCKTSGYTFISYWIHWVKQRPGQGLEWIGVIDPSDSYTNYNQNFKGKVTLTVDTSSSTAYMQLSSLTSEDSAVYYCARFDYDDYWGQGTTLTVSS
VL: QIVLTQSPAIMSASPGEKVTMTCSASSSVTYMQWYKQKSGTSPKRWIYDTSKLASGVPARFSGSGSGTSYSLTISSMEAEDAATYYCQQWNTNPWTFGGGTKLEIK
With B11, the binding result is “binds”.

Source of the values: PMC11588112 (Proceedings of the National Academy of Sciences of the …, 2024).
